A short description of this series: western blot, TGF-β-treated MCF-10A. The note with it: glycan lost, control: control sgRNA cells. On the technique in general: Immunoblotting shows a protein as a band on a membrane.
Regarding PD-L1: STT3A knockdown, the expression_or_secretion result is “no change”. As to PD-L1: STT3A/3B knockdown, the expression_or_secretion entry is “decreases”. In the case of PD-L1: STT3B knockdown, the expression_or_secretion entry is “no change”.

The record behind these values is article PMC5954021.
